# Measured values reported in US11844843 (DYNE THERAPEUTICS, dated 2023).
# Where a chain is given by its changes, count along the chain named. Names and notes keep the numbering of the source.
# T1: recombinant cynomolgus monkey (Macaca fascicularis) TfR1 (cynomolgus monkey (Macaca fascicularis), UniProt Q5RDH6 87-760 (Pongo abelii entry), limits assumed)
# T1 construct: Recombinant protein; also called cTfR1; cyTfR1
# T1 chain: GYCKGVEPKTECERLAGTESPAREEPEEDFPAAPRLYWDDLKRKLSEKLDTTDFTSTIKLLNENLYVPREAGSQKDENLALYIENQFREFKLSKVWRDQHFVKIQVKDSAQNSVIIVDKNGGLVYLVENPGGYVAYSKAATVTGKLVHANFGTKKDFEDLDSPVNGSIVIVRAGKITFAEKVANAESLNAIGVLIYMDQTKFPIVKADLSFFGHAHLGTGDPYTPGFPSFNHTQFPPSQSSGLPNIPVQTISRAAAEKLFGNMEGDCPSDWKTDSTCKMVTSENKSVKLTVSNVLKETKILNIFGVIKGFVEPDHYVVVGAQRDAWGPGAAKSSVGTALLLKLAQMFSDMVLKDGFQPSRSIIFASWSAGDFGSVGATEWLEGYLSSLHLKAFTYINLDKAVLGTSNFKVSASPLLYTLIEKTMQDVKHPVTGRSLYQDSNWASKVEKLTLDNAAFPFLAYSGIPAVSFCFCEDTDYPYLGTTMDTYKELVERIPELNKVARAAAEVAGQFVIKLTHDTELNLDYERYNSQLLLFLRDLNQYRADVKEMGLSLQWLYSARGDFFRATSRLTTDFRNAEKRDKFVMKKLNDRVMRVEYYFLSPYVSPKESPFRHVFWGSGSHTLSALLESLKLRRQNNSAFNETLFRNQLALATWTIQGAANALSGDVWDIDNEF
# B1: humanized anti-TfR Fab 3M12 VH3/Vκ3 (Fab, V domains shown)
# VH: QVQLQESGPGLVKPSQTLSLTCSVTGYSITSGYYWNWIRQPPGKGLEWMGYITFDGANNYNPSLKNRVSISRDTSKNQFSLKLSSVTAEDTATYYCTRSSYDYDVLDYWGQGTTVTVSS
# VL: DIQMTQSPSSLSASVGDRVTITCRASQDISNFLNWYQQKPGQPVKLLIYYTSRLHSGVPSRFSGSGSGTDFTLTISSLQPEDFATYYCQQGHTLPYTFGQGTKLEIKR
# notes: also called 3M12 (VH3/Vk3)
# B2: humanized anti-TfR Fab 3M12 VH4/Vκ2 (Fab, V domains shown)
# VH: B1 VH with S23T, M49I
# VL: B1 VL with Y87F
# notes: also called 3M12 (VH4/Vk2)
# B3: humanized anti-TfR Fab 5H12 VH5 (C33D)/Vκ4 (Fab, V domains shown)
# VH: QVQLVQSGAEVKKPGASVKVSCKASGYSFTDYDINWVRQAPGQGLEWMGWIYPGSGNTRYSERFKGRVTITRDTSASTAYMELSSLRSEDTAVYYCAREDYYPYHGMDYWGQGTLVTVSS
# VL: DIVMTQSPDSLAVSLGERATINCRASESVDGYDNSFMHWYQQKPGQPPKLLIFRASNLESGVPDRFSGSGSGTDFTLTISSLQAEDVAVYYCQQSSEDPWTFGQGTKLEIKR
# notes: also called 5H12 (VH5-C33D/Vk4)
# B4: humanized anti-TfR Fab 3A4 VH3/Vκ4 (Fab, V domains shown)
# VH: EVQLVQSGSELKKPGASVKVSCTASGFNIKDDYMYWVRQPPGKGLEWIGWIDPENGDTEYASKFQDRVTVTADTSTNTAYMELSSLRSEDTAVYYCTLWLRRGLDYWGQGTLVTVSS
# VL: DIVMTQSPLSLPVTPGEPASISCRSSKSLLHSNGYTYLFWFQQRPGQSPRLLIYRMSNLASGVPDRFSGSGSGTDFTLKISRVEAEDVGVYYCMQHLEYPFTFGGGTKVEIKR
# notes: also called 3A4 (VH3/Vk4)
# B5: conjugate of humanized anti-TfR Fab 5H12 VH5 (C33D)/Vκ4 with DMPK-targeting oligonucleotide ASO300 (Fab, V domains shown)
# VH: B3 VH
# VL: B3 VL
# modifications: oligonucleotide ASO300 conjugated to the Fab via linker; residue and chain not stated
# notes: also called 5H12 (VH5-C33D/Vk4) conjugate
# B6: conjugate of humanized anti-TfR Fab 3A4 VH3/Vκ4 with DMPK-targeting oligonucleotide ASO300 (Fab, V domains shown)
# VH: B4 VH
# VL: B4 VL
# modifications: oligonucleotide ASO300 conjugated to the Fab via linker; residue and chain not stated
# notes: also called 3A4 (VH3/Vk4) conjugate
# B7: 3-A4 mouse monoclonal anti-TfR antibody (antibody, V domains shown)
# VH: EVQLQQSGAELVRPGASVKLSCTASGFNIKDDYMYWVKQRPEQGLEWIGWIDPENGDTEYASKFQDKATVTADTSSNTAYLQLSSLTSEDTAVYYCTLWLRRGLDYWGQGTSVTVSS
# VL: DIVMTQAAPSVPVTPGESVSISCRSSKSLLHSNGYTYLFWFLQRPGQSPQLLIYRMSNLASGVPDRFSGSGSGTAFTLRISRVEAEDVGVYYCMQHLEYPFTFGGGTKLEIK
# notes: Mouse monoclonal IgG; also called 3-A04
# B8: 3-M12 mouse monoclonal anti-TfR antibody (antibody, V domains shown)
# VH: DVQLQESGPGLVKPSQSLSLTCSVTGYSITSGYYWNWIRQFPGNKLEWMGYITFDGANNYNPSLKNRISITRDTSKNQFFLKLTSVTTEDTATYYCTRSSYDYDVLDYWGQGTTLTVSS
# VL: DIQMTQTTSSLSASLGDRVTISCRASQDISNFLNWYQQRPDGTVKLLIYYTSRLHSGVPSRFSGSGSGTDFSLTVSNLEQEDIATYFCQQGHTLPYTFGGGTKLEIK
# notes: Mouse monoclonal IgG
# B9: 5-H12 mouse monoclonal anti-TfR antibody (antibody, V domains shown)
# VH: QIQLQQSGPELVRPGASVKISCKASGYSFTDYCINWVNQRPGQGLEWIGWIYPGSGNTRYSERFKGKATLTVDTSSNTAYMQLSSLTSEDSAVYFCAREDYYPYHGMDYWGQGTSVTVSS
# VL: DIVLTQSPTSLAVSLGQRATISCRASESVDGYDNSFMHWYQQKPGQPPKLLIFRASNLESGIPARFSGSGSRTDFTLTINPVEAADVATYYCQQSSEDPWTFGGGTKLEIK
# notes: Mouse monoclonal IgG
# B10: conjugate of humanized anti-TfR Fab 5H12 VH5 (C33Y)/Vκ3 with DMPK-targeting oligonucleotide ASO300 (Fab, V domains shown)
# VH: B3 VH with D33Y
# VL: B3 VL with M4L, G72R
# modifications: oligonucleotide ASO300 conjugated to the Fab via linker; residue and chain not stated
# notes: also called 5H12 (VH5-C33Y/Vk3) conjugate
# Molecular target: T2, recombinant human TfR1 (transferrin receptor protein 1) (human, UniProt P02786 89-760)
# T2 construct: Recombinant protein in SPR and ELISA; they were assigned to this molecule; also called hTfR1; huTfR1
# Assay: Biacore, d0; TfR1 species not stated
# Target sequence in this assay (P02786 89-760 limits assumed): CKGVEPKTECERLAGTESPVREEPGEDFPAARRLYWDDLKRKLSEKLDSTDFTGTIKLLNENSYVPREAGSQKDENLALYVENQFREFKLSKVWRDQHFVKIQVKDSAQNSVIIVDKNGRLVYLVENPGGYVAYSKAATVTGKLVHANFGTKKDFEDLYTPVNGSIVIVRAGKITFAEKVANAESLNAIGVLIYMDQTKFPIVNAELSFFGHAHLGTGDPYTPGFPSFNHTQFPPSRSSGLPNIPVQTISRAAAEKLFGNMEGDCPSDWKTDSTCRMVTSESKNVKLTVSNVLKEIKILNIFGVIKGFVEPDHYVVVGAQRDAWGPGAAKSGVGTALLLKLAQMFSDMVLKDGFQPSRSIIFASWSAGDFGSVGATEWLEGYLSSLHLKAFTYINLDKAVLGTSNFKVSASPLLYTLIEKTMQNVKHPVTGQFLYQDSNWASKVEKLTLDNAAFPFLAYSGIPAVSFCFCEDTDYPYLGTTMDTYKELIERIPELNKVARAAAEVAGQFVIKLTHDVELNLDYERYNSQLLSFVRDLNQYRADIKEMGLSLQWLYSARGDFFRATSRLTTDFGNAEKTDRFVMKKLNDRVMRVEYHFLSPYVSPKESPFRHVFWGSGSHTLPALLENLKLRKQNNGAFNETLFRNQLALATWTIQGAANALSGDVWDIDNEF
row,Binder,Kd [nM]
1,B1,0.345
2,B2,0.396
3,B3,0.991
4,B4,1.5

# Molecular target: T2, recombinant human TfR1 (transferrin …)
# Assay: Biacore, d25; TfR1 species not stated
# Target sequence in this assay (P02786 89-760 limits assumed): as above
row,Binder,Kd [nM]
1,B1,0.515
2,B2,0.51
3,B3,3.01
4,B4,1.35

# Molecular target: T2, recombinant human TfR1 (transferrin …)
# Assay: Table 14, Fab-ASO300 conjugate; method not named
# Target sequence in this assay (P02786 89-760 limits assumed): as above
row,Binder,DMPK oligo conjugate binding [nM]
1,B5,110
2,B6,2.84

# Molecular target: T1, recombinant cynomolgus monkey (Macaca …)
# Assay: Table 14, Fab-ASO300 conjugate; method not named
row,Binder,DMPK oligo conjugate binding [nM]
1,B5,10.2
2,B6,7.59

# Molecular target: T2, recombinant human TfR1 (transferrin …)
# Assay: Avg KD, antibody alone; method not stated in Table 11
row,Binder,Kd [nM]
1,B7,0.436
2,B8,0.768
3,B9,202

# Molecular target: T1, recombinant cynomolgus monkey (Macaca …)
# Assay: as above
row,Binder,Kd [nM]
1,B7,2.32
2,B8,5.18
3,B9,12

# Molecular target: T2, recombinant human TfR1 (transferrin …)
# Assay: kinetic analysis (Biacore), Table 7; TfR1 species not stated
# Target sequence in this assay (P02786 89-760 limits assumed): as above
Binder,Kd [nM],koff [s⁻¹],kon [M⁻¹ s⁻¹]
B1,0.345,8.34e-05,242000
B2,0.396,9.98e-05,252000
B3,0.991,0.000672,678000
B4,1.5,–,–

# Molecular target: T2, recombinant human TfR1 (transferrin …)
# Assay: Carterra LSA SPR, 25 C; IgG captured, hTfR1 as analyte; 1:1 fit
# Experimental: Selected anti-TfR1 antibodies were tested for their binding affinity to human TfR1 for measurement of Ka (association rate constant). Kd (dissociation rate constant), and K_D (affinity). […] The binding experiment was performed on Carterra LSA at 25° C. An anti-mouse IgG and anti-human IgG antibody "lawn" was prepared on a HC30M chip by amine coupling. The IgGs were captured on the chip. Dilution series of hTfR1, cyTfR1, and hTfR2 were injected to the chip for binding (starting from 1000 nM, 1:3 dilution, 8 concentrations).
# Binding data were referenced by subtracting the responses from a buffer analyte injection and globally fitting to a 1:1 Langmuir binding model for estimate of Ka (association rate constant), Kd (dissociation rate constant), and K_D (affinity) using the Carterra™ Kinetics software, 5-6 concentrations were used for curve fitting.
Binder,Kd [nM],kon [M⁻¹ s⁻¹]
B7,0.436,447000
B8,0.768,166000
B9,208,66700

# Molecular target: T2, recombinant human TfR1 (transferrin …)
# Assay: Table 14, unconjugated Fab, d9 (after 9 days at 40 C); method not named
# Target sequence in this assay (P02786 89-760 limits assumed): as above
row,Binder,Binding affinity [nM]
1,B1,1.49
2,B2,0.5
3,B3,92.3
4,B4,0.46

# Molecular target: T1, recombinant cynomolgus monkey (Macaca …)
# Assay: as above
row,Binder,Binding affinity [nM]
1,B1,15.6
2,B2,5.01
3,B3,0.63
4,B4,878

# Molecular target: T2, recombinant human TfR1 (transferrin …)
# Assay: ELISA, recombinant TfR1 coated, unconjugated Fab (row 'Fab binding affinity ELISA')
# Target sequence in this assay (P02786 89-760 limits assumed): as above
row,Binder,EC50 [nM]
1,B1,0.6
2,B2,0.4
3,B3,6
4,B4,1.5

# Molecular target: T1, recombinant cynomolgus monkey (Macaca …)
# Assay: as above
row,Binder,EC50 [nM]
1,B1,4.7
2,B2,1.4
3,B3,3.5
4,B4,122

# Molecular target: T2, recombinant human TfR1 (transferrin …)
# Assay: Table 14, unconjugated Fab, d0; method not named (values equal ELISA row of Table 13)
row,Binder,Binding affinity [nM]
1,B1,0.6
2,B2,0.4
3,B3,6
4,B4,1.5

# Molecular target: T1, recombinant cynomolgus monkey (Macaca …)
# Assay: as above
row,Binder,Binding affinity [nM]
1,B1,4.7
2,B2,1.4
3,B3,3.5
4,B4,122

# Molecular target: T2, recombinant human TfR1 (transferrin …)
# Assay: ELISA, recombinant TfR1 coated, Fab-ASO300 conjugate (row 'Conjugate binding affinity ELISA')
row,Binder,EC50 [nM]
1,B5,110
2,B10,33.4
3,B6,2.8

# Molecular target: T1, recombinant cynomolgus monkey (Macaca …)
# Assay: as above
row,Binder,EC50 [nM]
1,B5,10.2
2,B10,2.3
3,B6,7.6
